Laboratory results as given in patent US9809653B2, “Anti-LAMP1 antibodies and antibody drug conjugates, and uses thereof” (SANOFI, priority 2012, dated 2017).

What was measured:
[1] = target: T1, LAMP1 (SEQ ID NO: 28 protein) (Homo sapiens, UniProt P11279); assay: Affinity to LAMP1 by SPR (BIAcore 2000); format: binding
T1 construct: made in house; host or cells: HEK293 (293-F), transient expression, IMAC-purified
T1 sequence (P11279 with tags, fused parts or gaps): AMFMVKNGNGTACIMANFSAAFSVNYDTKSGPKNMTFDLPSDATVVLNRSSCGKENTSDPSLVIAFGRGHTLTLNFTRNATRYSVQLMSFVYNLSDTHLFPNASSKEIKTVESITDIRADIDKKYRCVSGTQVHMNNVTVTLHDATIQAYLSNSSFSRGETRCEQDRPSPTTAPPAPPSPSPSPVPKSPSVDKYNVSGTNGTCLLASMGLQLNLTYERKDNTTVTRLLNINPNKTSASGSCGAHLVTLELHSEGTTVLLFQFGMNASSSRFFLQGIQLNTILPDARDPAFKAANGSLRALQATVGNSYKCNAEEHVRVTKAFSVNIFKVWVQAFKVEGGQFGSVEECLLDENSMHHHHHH
Method: The use of surface plasmon resonance to determine is known to the skilled in the art. In one example the binding kinetics of for example the murine, chimer or humanized anti-LAMP1 mAbs were determined by surface plasmon resonance assay using typically a BIAcore 2000 (BIAcore Inc., Uppsala, N.J.). Therefore, for example a CM5 BIAcore biosensor chip was docked into the instrument and activated with for example 70 μL of 1:1 NHS/EDC at room temperature. Typically, a mouse anti-αhuman Fc IgG1 (BIAcore #BR-1008-39) and rabbit anti-αmurine Fc IgG1 (BIAcore #BR-1008-38) (50 μg/mL in 1 M acetate buffer, pH5) were immobilized on the activated chips in all flow cells. The immobilization was carried out at a flow rate of for example 10 μL/min up to saturation. The chip was then blocked by for example injection of 70 μL of ethanolamine-HCl, pH 8.5, followed by one wash with 3 M MgCl2 for anti-αhuman Fc IgG1 and one wash with 10 mM Glycine-HCl pH 1.7 for anti-αmurine Fc IgG1. To measure the binding of for example anti-LAMP1 mAbs to LAMP1, antibodies were used at 1-5 μg/mL in BIAcore running buffer (HBS-EP). The antigen for example (Sequence ID No 28 protein produced as described in example 6.2) was injected from for example 1 to 256 nM. Following completion of the injection phase, dissociation was monitored in a BIAcore running buffer at the same flow rate for typically 600 sec. The surface was typically regenerated between injections using for example 2×5 μL 3 M MgCl2 (2×30 s) or anti-αhuman Fc IgG1 and 1×30 μL 10 mM Glycine-HCl pH 1.7 for anti-αmurine Fc IgG1 (180 s). Individual sensorgrams were typically analyzed using BIAevaluation software.
The binding kinetics of the murine, chimer or humanized anti-LAMP1 mAbs were determined by surface plasmon resonance assay using a BIAcore 2000 (BIAcore Inc., Uppsala, N.J.). Briefly, a CM5 BIAcore biosensor chip was docked into the instrument and activated with 70 μL of 1:1 NHS/EDC at room temperature. A mouse anti-αhuman Fc IgG1 (BIAcore #BR-1008-39) and rabbit anti-αmurine Fc IgG1 (BIAcore #BR-1008-38) (50 μg/mL in 1 M acetate buffer, pH5) were immobilized on the activated chips in all flow cells. The immobilization was carried out at a flow rate of 10 μL/min up to saturation. The chip was then blocked by injection of 70 μL of ethanolamine-HCl, pH 8.5, followed by one wash with 3 M MgCl2 for anti-αhuman Fc IgG1 and one wash with 10 mM Glycine-HCl pH 1.7 for anti-αmurine Fc IgG1. To measure the binding of anti-LAMP1 mAbs to LAMP1, antibodies were used at 1-5 μg/mL in BIAcore running buffer (HBS-EP). The antigen (SEQ ID NO: 28 protein produced as described in example 6.2) was injected from 1 to 256 nM. Following completion of the injection phase, dissociation was monitored in a BIAcore running buffer at the same flow rate for 600 sec. The surface was regenerated between injections using 2×5 μL 3 M MgCl2 (2×30 s) or anti-αhuman Fc IgG1 and 1×30 μL 10 mM Glycine-HCl pH 1.7 for anti-αmurine Fc IgG1 (180 s). Individual sensorgrams were analyzed using BIAevaluation software.

mLAMP1_ΔGYQTI = target: T2, mLAMP1_ΔGYQTI (Mus musculus, UniProt P11438); assay: Binding onto membrane-anchored murine LAMP1 (293-F cells) by flow cytometry; settings: pXL6009 mLAMP1_ΔGYQTI
T2 construct: expressed in transfected cells; host or cells: 293-F (HEK293-derived), transient transfection, plasmid pXL6009
T2 sequence (P11438 with tags, fused parts or gaps limits assumed): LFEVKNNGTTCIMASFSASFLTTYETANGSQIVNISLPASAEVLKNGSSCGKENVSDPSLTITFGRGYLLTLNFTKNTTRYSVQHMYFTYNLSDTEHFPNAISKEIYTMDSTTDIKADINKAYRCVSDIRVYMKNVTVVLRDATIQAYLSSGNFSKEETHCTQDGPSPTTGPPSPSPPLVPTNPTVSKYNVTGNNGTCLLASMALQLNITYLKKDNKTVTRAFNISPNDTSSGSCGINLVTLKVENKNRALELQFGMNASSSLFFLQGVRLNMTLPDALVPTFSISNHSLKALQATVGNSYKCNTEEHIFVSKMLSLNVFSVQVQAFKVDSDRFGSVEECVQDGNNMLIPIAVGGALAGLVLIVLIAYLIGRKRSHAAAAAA
Source text: Different LAMP1 proteins were expressed at the cell membrane of HEK293 cells after transient expression from mammalian plasmids encoding the entire coding sequence of LAMP1 deleted of the intracellular lysosome-targeting motif GYQTI and substituted by a 5-Ala repeat sequence. Mammalian plasmids had similar expression signals as plasmids used to produce recombinant LAMP1 described in example 6.2. Table 14 below lists all the plasmids that were designed in order to confirm the results obtained with soluble LAMP1 protein by ELISA in example 6.3 and further characterize the binding domains of the anti-LAMP1 mAbs.
Each expression plasmid described in example 6.4 was complexed with 293Fectin™ in suspension-cultivated 293-F cells as using the protocol outlined in example 6.2. Two days post transfection cells were processed, analyzed by flow cytometry (Guava® easyCyte™ 8HT) as mentioned in example 4.7, and the mean fluorescence was recorded. This fluorescence represents a semi-quantitative assessment of binding.

Molecule	Kd [1] [nM]	ka [1] [M⁻¹ s⁻¹]	kd [1] [s⁻¹]	Binding call (mLAMP1_ΔGYQTI; Table 17 Experiment no1)	Mean fluorescence (mLAMP1_ΔGYQTI; Table 17 Experiment no1)	Binding call (mLAMP1_ΔGYQTI; Table 17 Experiment no2)	Mean fluorescence (mLAMP1_ΔGYQTI; Table 17 Experiment no2)	Mean fluorescence (mLAMP1_ΔGYQTI; Table 18)	Binding call (mLAMP1_ΔGYQTI; Table 18)
MAb1: murine monoclonal anti-LAMP1 antibody, VH SEQ ID NO: 1, VL SEQ ID NO: 5 (antibody, V domains shown, Antibody Fragment; antibody fragment) VH: QVQLQQSGAELVKPGASVKMSCKASGYIFTNYNIHWVKKSPGQGLEWIGAIYPGNGDAPYSQKFKDKATLTADKSSSTTYMQLSRLTSEDSAVYYCVRANWDVAFAYWGQGTLVSVSA VL: DIQMTQSPPSLSASLGGKVTITCKASQDIDRYMAWYQDKPGKGPRLLIHDTSTLQPGIPSRFSGSGSGRDYSFSISNLEPEDIATYYCLQYDNLWTFGGGTKLEIK	4.8	148000	0.00071	No binding	4	No binding	2	13	–
MAb2: murine monoclonal anti-LAMP1 antibody, VH SEQ ID NO: 8, VL SEQ ID NO: 12 (antibody, V domains shown, antibod fragment; antibody fragment) VH: QVQLQQSAAELARPGASVKMSCKASGYTFTSYTMHWVKQRPGQGLEWIGYFNPSSGYPEYNQKFKDKTTLTADKSSNTAFIQLNSLTSEDSAVYYCSRGYYYGSRGYALDFWGQGASVTVSS VL: NIVLTQSPVSLAVSLGQRATISCRASESVDINGNTFMHWYQQKPGQSPKLVIYAASNIESGVPARFSGSGSSTDFTFTIDPVEADDVATYYCQQNIEDPWTFGGGTKVEIK	63.5	63300	0.00402	No binding	21	–	–	27	No binding
